Measurements from US20260028406A1.

What was measured:
[1] = molecular target: purified human tenascin C protein (human) (UniProt P24821); experiment: ELISA, plates coated with 3 ug/ml purified human TNC, increasing VHH concentration
[2] = molecular target: purified human tenascin C protein (human) (UniProt P24821); experiment: BLI (biolayer interferometry); format not described
[3] = molecular target: EIIIB domain of fibronectin; experiment: as above
Sequence of EIIIB domain of fibronectin (P02751 1271-1359): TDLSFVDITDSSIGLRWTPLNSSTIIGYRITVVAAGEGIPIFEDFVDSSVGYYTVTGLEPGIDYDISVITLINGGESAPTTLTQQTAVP

Sequence of purified human tenascin C protein (human) (P24821 23-2201): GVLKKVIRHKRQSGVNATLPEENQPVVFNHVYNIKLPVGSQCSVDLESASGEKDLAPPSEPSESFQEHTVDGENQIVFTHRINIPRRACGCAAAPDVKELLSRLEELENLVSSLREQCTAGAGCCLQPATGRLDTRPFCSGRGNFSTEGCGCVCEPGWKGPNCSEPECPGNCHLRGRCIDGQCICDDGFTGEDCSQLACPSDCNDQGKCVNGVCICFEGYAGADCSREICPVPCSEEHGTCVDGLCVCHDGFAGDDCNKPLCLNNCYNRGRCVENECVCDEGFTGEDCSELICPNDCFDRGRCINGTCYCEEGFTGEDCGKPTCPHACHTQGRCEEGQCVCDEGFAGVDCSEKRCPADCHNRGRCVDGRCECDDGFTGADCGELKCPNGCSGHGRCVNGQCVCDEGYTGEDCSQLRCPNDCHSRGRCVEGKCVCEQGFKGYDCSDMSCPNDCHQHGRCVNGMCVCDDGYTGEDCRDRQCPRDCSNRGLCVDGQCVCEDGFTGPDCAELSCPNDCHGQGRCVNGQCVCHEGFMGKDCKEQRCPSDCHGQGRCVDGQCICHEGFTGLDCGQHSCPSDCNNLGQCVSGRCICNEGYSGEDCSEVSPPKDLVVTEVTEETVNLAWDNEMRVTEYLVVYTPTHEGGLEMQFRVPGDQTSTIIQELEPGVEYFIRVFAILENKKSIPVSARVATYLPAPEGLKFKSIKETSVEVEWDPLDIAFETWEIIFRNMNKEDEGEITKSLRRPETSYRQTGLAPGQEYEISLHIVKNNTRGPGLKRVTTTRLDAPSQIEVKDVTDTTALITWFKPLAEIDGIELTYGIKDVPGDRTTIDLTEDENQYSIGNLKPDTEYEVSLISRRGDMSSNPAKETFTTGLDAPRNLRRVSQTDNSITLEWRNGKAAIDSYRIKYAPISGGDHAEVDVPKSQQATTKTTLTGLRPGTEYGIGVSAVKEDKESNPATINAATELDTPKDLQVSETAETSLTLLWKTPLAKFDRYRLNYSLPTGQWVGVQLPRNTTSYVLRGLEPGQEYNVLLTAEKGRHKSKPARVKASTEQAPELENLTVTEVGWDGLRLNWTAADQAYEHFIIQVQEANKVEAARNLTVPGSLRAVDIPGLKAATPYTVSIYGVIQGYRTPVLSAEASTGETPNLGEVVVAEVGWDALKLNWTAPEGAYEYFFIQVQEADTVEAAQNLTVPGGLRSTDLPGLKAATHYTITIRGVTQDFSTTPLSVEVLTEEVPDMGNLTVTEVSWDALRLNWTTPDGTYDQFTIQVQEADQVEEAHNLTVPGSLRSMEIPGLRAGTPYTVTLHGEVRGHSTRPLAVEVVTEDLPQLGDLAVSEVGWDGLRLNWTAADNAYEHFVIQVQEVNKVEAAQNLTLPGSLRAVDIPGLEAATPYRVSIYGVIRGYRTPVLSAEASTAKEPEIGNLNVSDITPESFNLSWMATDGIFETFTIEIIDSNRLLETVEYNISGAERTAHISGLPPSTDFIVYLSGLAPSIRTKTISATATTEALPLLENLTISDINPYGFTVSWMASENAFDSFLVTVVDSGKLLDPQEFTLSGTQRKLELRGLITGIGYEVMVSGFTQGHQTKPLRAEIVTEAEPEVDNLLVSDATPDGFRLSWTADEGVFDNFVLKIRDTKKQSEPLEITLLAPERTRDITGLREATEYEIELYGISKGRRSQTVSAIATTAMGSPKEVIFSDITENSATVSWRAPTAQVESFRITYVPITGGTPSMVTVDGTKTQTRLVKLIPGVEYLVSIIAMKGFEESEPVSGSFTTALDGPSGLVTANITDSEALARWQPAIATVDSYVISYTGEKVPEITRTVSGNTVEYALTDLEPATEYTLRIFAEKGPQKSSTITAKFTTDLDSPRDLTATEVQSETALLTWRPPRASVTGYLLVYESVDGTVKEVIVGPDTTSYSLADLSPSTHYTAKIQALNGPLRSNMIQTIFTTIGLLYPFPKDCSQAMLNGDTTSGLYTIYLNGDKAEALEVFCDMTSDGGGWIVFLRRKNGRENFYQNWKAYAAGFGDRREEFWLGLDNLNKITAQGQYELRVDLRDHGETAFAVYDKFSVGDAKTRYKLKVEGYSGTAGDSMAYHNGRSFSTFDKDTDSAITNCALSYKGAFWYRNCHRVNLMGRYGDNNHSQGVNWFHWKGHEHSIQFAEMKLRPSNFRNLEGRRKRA

| Binder | EC50 (read off the curve) [1] [ng/mL] | Kd [2] [pM] | Kd [3] [nM] |
| --- | --- | --- | --- |
| NJB2 nanobody (VHH) (VHH) VHH: QVQLVETGGGLVQAGGSLRLSCAASGSTFSHNAGGWYRQAPEKQRELVAGISSDGNINYADSVKDRFTISRDNASNTMYLQMNNLKPEDTAVYVCNIRGSYGNTYYSRWGQGTQVTVSS | – | – | 4 |
| NJT3 nanobody (VHH) (VHH) VHH: QVQLVETGGGLAQAGGSLRLSCAASGRTLSGYAMGWFRQAPGKEREFVAAISWSGRNTYYDYTVQGRFTISKDNAKNTVNLQMNSLKPEDTAVYYCAVSRSLDEFGDGYEMDYWGDGTQVTVSS | 0.02 | < 1 | – |

Second part, the binder after the results:

| EC50 (read off the curve) [1] [ng/mL] | Kd [2] [pM] | Kd [3] [nM] | Binder |
| --- | --- | --- | --- |
| 0.01 | < 1 | – | NJT6 nanobody (VHH) (VHH) VHH: QVQLVETGGDLVQPGGSLRLSCAASGLTLDYYAIGWVRQAPGKEREGVSCITPQDGNTYYDDSVMGRFTILRDNAKNMVYLQMNNLKPEDTAVYFCAAAGALTLDPSEYEYWGQGTQVTVSS |
| – | < 1 | – | NJT4 nanobody (VHH) (VHH) VHH: QVQLVESGGGLVQPGGSLRLSCAASGFTFSSYTMRWYRQAPGKERELVAFIGVAGGSTKYADSVKGRFTISRDNTKNTVYLQMNTLKPEDTAVYYCYAPLTPYWGQGTQVTVSS |
